Measurements reported in patent US20220356229A1 (published 2022).

Experiments:
SARS-CoV Spike protein = SARS-CoV Spike protein (SARS-CoV, UniProt P59594 14-1190)
[1] = biological target: SARS-CoV-2 full length Spike protein, wild type, expressed on CHO cells (SARS-CoV-2, UniProt P0DTC2 14-1273)
[2] = biological target: SARS-CoV full length Spike protein, wild type, expressed on CHO cells (SARS-CoV, UniProt P59594 14-1255)
SARS-CoV-2 Spike protein = SARS-CoV-2 Spike protein (SARS-CoV-2, UniProt P0DTC2 14-1208); experiment: HT-SPR (Carterra LSA), mAb coupled to chip, Spike in solution, 1:1 Langmuir fit

B1: anti-coronavirus antibody 548 (antibody, V domains shown)
VH: QVQLVESGGGVVQPGRSLRLSCAASGFTFSSYAMHWVRQAPGKGLEWVAVISYDGSNKYYADSVKGRFTISRDNSKNTLYLQMNNLRAEDTAVYYCAKSGSGSYLSAFDIWGQGTMVTVSS
VL: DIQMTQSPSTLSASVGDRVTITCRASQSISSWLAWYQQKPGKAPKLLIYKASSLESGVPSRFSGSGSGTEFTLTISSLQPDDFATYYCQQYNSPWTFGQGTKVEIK
binding signal (fold over isotype control) (SARS-CoV Spike protein): 18.1 fold over isotype control

B2: anti-SARS-CoV-2 antibody 1037 (antibody, V domains shown)
VH: QITLKESGPTLVKPTQTLTLTCTFSGFSLSTSGVGVGWIRQPPGKALEWLALIYWDDDKRYSPSLKSRLTITKDTSKNQVVLTMTNMDPVDTATYYCAHHTITRINDYWGQGTLVTVSS
VL: QSALTQPASVSGSPGQSITISCTATSSDVGAYNYVSWYQQHPGKAPKLMIYDVSKRPSGVSNRFSGSKSGNTASLTISGLQAEDEADYYCSSYTSSSTVFGGGTKLTVLG
median fluorescence intensity, fold over isotype control [1]: 83 fold over isotype | median fluorescence intensity, fold over isotype control [2]: 23.1 fold over isotype

B3: anti-coronavirus antibody 556 (antibody, V domains shown)
VH: QVQLVESGGGVVQPGRSLRLSCAASGFTFSSYAMHWVRQAPGKGLEWVAVISYDGSDKYYADSVKGRVTISRDNSKNTLYLQMNSLRVEDTAVFYCAKDDCSGGVCFPDYWGQGTLVTVSS
VL: QSALTQPASVSGSPGQSITISCTGTSSDVGGYNYVSWYQQHPGKAPKLMIYEVSIRPSGVSNRFSGSKSGNTASLTISGLQAEDEAAYYCSSYTSSSTLVFGGGTKLTVL
binding signal (fold over isotype control) (SARS-CoV Spike protein): 1.09 fold over isotype control

B4: anti-coronavirus antibody 544 (antibody, V domains shown)
VH: QVQLQQWGAGLLKPSETLSLTCAVYGGSFSGYYWSWIRQPPGKGLEWIGEINHSGSTNYNPSLKSRVTISVDTSKNQFSLKLSSVTAADTAVYYCARGFKWFGELLFGAQGTLVTVSS
VL: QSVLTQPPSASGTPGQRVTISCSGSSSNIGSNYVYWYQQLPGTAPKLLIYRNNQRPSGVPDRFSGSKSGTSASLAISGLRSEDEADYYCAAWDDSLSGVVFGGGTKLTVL
binding signal (fold over isotype control) (SARS-CoV Spike protein): 1.05 fold over isotype control

B5: mAb 1538 (antibody, V domains shown)
VH: EVQLLESGGGLVQPGGSLRLSCAASGFTFSSYAMSWVRQAPGKGLEWVSGISDSGGSTYYADYVKGRFTISRDNSKDTLYLQMNSLRAEDTAVYYCAKDRGNEYALTHYYYYAMDVWGQGTTVTVSS
VL: DIQMTQSPSSLSASVGDRVTITCRASQSISSYLNWYQQKPGKAPKLLIYAAYSLQSGVPSRFSGGGSGTDFTLTISSLQPEDFATYFCQQSYSTPITFGQGTRLEIKR
notes: human IgG1
Kd (SARS-CoV-2 Spike protein): ≤ 0.0754 nM | koff (SARS-CoV-2 Spike protein): ≤ 1e-05 s⁻¹ | kon (SARS-CoV-2 Spike protein): 133000 M⁻¹ s⁻¹

B6: anti-SARS-CoV-2 antibody 1585 (antibody, V domains shown)
VH: QVQLVESGGGVVQPGRSLRLSCAASGFTFSRFTLHWVRQAPGKGLEWVAVISYDGSNKYYADSVKGRFTISRDNSKSTLYLQMNSLRAEDTGVYYCARDPSTVTGYFDYWGQGTLVTVSS
VL: SYVLTQPPSVSVAPGKTAKISCGGDSIGSKSVHWYQQKPGQAPVLVIYYDNDRPSGIPERFSGSNSGNTATLTISRVEAGDEADYYCQVWDIGVVFGGGTKLTVLG
median fluorescence intensity, fold over isotype control [1]: 9.55 fold over isotype | median fluorescence intensity, fold over isotype control [2]: 19.9 fold over isotype

B7: mAb 1585 (antibody, V domains shown)
VH: QVQLVESGGGVVQPGRSLRLSCAASGFTFSRFTLHWVRQAPGKGLEWVAVISYDGSNKYYADSVKGRFTISRDNSKSTLYLQMNSLRAEDTGVYYCARDPSTVTGYFDYWGQGTLVTVSS
VL: SYVLTQPPSVSVAPGKTAKISCGGDSIGSKSVHWYQQKPGQAPVLVIYYDNDRPSGIPERFSGSNSGNTATLTISRVEAGDEADYYCQVWDIGVVFGGGTKLTVLG
notes: human IgG1
Kd (SARS-CoV-2 Spike protein): ≤ 0.0171 nM | koff (SARS-CoV-2 Spike protein): ≤ 1e-05 s⁻¹ | kon (SARS-CoV-2 Spike protein): 586000 M⁻¹ s⁻¹

B8: anti-coronavirus antibody 560 (antibody, V domains shown)
VH: EVQLVESGGGLVQPGGSLRLSCAASGFTISSNYMSWVRQAPGKGLEWVSVIYSGGSTYYADSVKGRFTISRDNSKNTLYLQMNSLRAEDTAVYYCAREEGEWEKDYYGMDVWGQGTTVTVSS
VL: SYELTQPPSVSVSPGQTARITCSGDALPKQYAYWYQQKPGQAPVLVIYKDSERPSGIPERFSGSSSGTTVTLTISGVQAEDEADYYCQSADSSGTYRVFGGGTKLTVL
binding signal (fold over isotype control) (SARS-CoV Spike protein): 1.14 fold over isotype control

B9: anti-coronavirus antibody 545 (antibody, V domains shown)
VH: QVQLVQSGSELKKPGASVKVSCKASGYTFTSYAMNWVRQAPGQGLEWMGWINTNTGNPTYAQGFTGRFVFSLDTSVSTAYLQISVLKAEDTGVYYCARDHELPNSSSWFGHFEYWGQGTLVTVSS
VL: SYELTQPPSVSVSPGQTARITCSGDALPKQYAYWYQQKAGQAPVLVIYKDSERRSGIPERFSGSSSGTTVTLTISGVQAEDEADYYCQSADSSGTSVVFGGGTKLTVL
binding signal (fold over isotype control) (SARS-CoV Spike protein): 1.13 fold over isotype control

B10: anti-coronavirus antibody 546 (antibody, V domains shown)
VH: QVQLVESGGGVVQPGRSLRLSCAASGFTFSSYGMHWVRQAPGKGLEWVAVIWYDGSNKYYADSVKGRFTISRDNSKNTLYLQMNSLRAEDTAVYYCARNCGGDCVAGDGFDYWGQGTLVTVSS
VL: DIQMTQSPSSLSASVGDRVTITCRASQSISSYLNWYQQKPGKAPNLLIYAASSLQSGVPSRFSGSGSGTDFTLTISSLQPEDFATYYCQQSYSALTWTFGQGTKVEIK
binding signal (fold over isotype control) (SARS-CoV Spike protein): 1.18 fold over isotype control

B11: mAb 1444 (antibody, V domains shown)
VH: QVQLVQSGAEVKKPGASVKVSCKASGYTFTAYYMHWVRQAPGQGLEWMGWINPNSDDTNYAQKFQGRVTMTRDTSISTAYMELSRLRSDDTAVYYCAREEGVFTIGDRYFDLWGRGTLVSVSS
VL: QTVVTQEPSFSVSPGGTVTLTCGLSSGSVSTSYYPSWYQQTPGQAPRTLIYNTNTRSSGVPDRFSGSILGNKAALTITGAQADDESDYYCVLYMGSGIWVFGGGTKLTVLG
notes: human IgG1
Kd (SARS-CoV-2 Spike protein): ≤ 0.0221 nM | koff (SARS-CoV-2 Spike protein): ≤ 1e-05 s⁻¹ | kon (SARS-CoV-2 Spike protein): 453000 M⁻¹ s⁻¹

B12: anti-coronavirus antibody 563 (antibody, V domains shown)
VH: QVQLVESGGGVVQPGRSLRLSCAASGFTFSSYAMHWVRQAPGKGLEWVAVISDDGSNKYYADSVKGRFTISRDNSKNTLYLQMNSLRAEDTAVYYCARDIVATIRRLFDYWGQGTLVTVSS
VL: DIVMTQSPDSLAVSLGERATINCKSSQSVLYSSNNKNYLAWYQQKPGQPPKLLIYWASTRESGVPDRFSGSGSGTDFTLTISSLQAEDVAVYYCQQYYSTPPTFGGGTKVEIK
binding signal (fold over isotype control) (SARS-CoV Spike protein): 35.4 fold over isotype control

B13: anti-SARS-CoV-2 antibody 923 (antibody, V domains shown)
VH: EVQLVESGGGVVRPGGSLRLSCAASGFIFDDYDMTWVRQAPGKGLEWVSGISWNGGNTGYADSVKGRFTISRDNAKNSLYLQMNSLRAEDTALYHCAVIMSPIPRYSGYDWAGGAFDIWGQGTMVTVSS
VL: SSELTQDPAVSVALGQTVRITCQGDSLRSYYASWYQQKPGQVPILVIYDKNNRPSGIPDRFSGSSSGNTASLTITGAQAEDEADYYCNSRDSSGNAVVFGGGTKLTVLG
median fluorescence intensity, fold over isotype control [1]: 59 fold over isotype | median fluorescence intensity, fold over isotype control [2]: 118 fold over isotype

B14: anti-SARS-CoV-2 antibody 970 (antibody, V domains shown)
VH: EVQLVESGGGLVQPGGSLRLSCAASGFTFSSYWMSWVRQAPGKGLEWVANINKDGSEKYYVDSVKGRFTISRDNAKNSLYLQMNSLRAEDTAVYFCARDYRYFDWLLSQIDLEIDYFDYWGQGTLVTVSS
VL: not shown
median fluorescence intensity, fold over isotype control [1]: 20.6 fold over isotype | median fluorescence intensity, fold over isotype control [2]: 124 fold over isotype

B15: mAb 1495 (antibody, V domains shown)
VH: QVQLVESGGGVVQPGRSLRLSCTASGFTFSSYAMHWVRQAPGKGLEWVAVISYDGNNKYYGDSVKGRFTISRDNSKNTLYLQMNSLRAEDTAVYYCAKGADTPHYSGYHFLSVGYYFYGMDVWGQGTTVTVSS
VL: DIQMTQSPSSLSASVGDRVTITCRASQSISYYLNWYQQKPGKAPQLLIYAASSLQSGVPSRFSGSRSGTDFTLTISSLQPEDFATYYCQQSYSTPFTFGPGTKVDIKR
notes: human IgG1
Kd (SARS-CoV-2 Spike protein): 0.0972 nM | koff (SARS-CoV-2 Spike protein): 1.01e-05 s⁻¹ | kon (SARS-CoV-2 Spike protein): 103000 M⁻¹ s⁻¹

B16: anti-coronavirus antibody 566 (antibody, V domains shown)
VH: QVQLVQSGAEVKKPGASVKVSCKASGYTFTSYAMHWVRQAPGQRLEWMGWINAGNGNTKYSQKFQGRVTITRDTSASTAYMELSSLRSEDTAVYYCARDLGVAVTLHPADFDYWGQGTLVTVSS
VL: QSVLTQPPSVSGAPGQRVTISCTGSSSNIGAGYDVHWYQQLPGTAPKLLIYDNSNRPSGVPDRFSGSKSGTSASLAITGLQAEDEADYYCQSYDSSLSAVVFGGGTKLTVL
binding signal (fold over isotype control) (SARS-CoV Spike protein): 0.97 fold over isotype control
